Measured values reported in doi:10.1101/2023.01.24.525315 (bioRxiv, 2023).

Experiments:
Fly Caf1 wild-type = Fly Caf1 wild-type (fly (Drosophila melanogaster), UniProt Q24572 1-430); assay: pull-down
[1] = target: Caf1 H3 binding pocket mutant (E235Q/D252K/E279Q) (fly (Drosophila melanogaster), UniProt Q24572 1-430, E235Q | D252K | E279Q); assay: pull-down
Sequence of Caf1 H3 binding pocket mutant (E235Q/D252K/E279Q) (Q24572 whole entry E235Q/D252K/E279Q): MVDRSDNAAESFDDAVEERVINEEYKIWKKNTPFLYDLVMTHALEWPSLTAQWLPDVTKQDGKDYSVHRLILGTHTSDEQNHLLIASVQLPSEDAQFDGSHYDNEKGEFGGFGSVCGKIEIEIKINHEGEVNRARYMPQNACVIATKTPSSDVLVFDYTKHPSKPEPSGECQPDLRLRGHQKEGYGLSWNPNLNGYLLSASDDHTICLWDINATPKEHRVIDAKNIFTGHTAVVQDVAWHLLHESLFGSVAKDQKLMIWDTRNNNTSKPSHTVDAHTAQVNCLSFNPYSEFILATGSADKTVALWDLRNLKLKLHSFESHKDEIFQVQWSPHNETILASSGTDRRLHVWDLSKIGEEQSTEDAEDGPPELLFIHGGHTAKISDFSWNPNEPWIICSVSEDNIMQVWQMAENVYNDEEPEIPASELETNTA

Sequence of Fly Caf1 wild-type (Q24572 whole entry): as the sequence (Q24572 whole entry E235Q/D252K/E279Q) above, with Q235E, K252D, Q279E counted along it

Binder: AKLQPLSEKEKKLVRQFNTFLVRNFEKIRRCKAKR (domain or fragment, fly (Drosophila melanogaster), UniProt Q9VW15 1582-1616, looked up) [GST-CBM (Caf1-binding-motif, Ash1 1,582-1,616)]
- binding result (Fly Caf1 wild-type): binds
- binding result [1]: binds
